The supplement of paper PMC9112550, “Optimization of the antimicrobial peptide Bac7 by deep mutational scanning” (BMC Biology, 2022)

Test system: Escherichia coli TOP10
Test: shrunken log2 fold change of peptide-encoding DNA abundance (4.5 h post-induction vs induction); higher = less antimicrobial activity (less host growth inhibition)
Settings: time post-induction: 4.5 h; library: site-saturation at positions 5, 18, 19, 20
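Note: peptides expressed intracellularly from a pBAD plasmid library in pooled LB shake-flask culture, induced with 0.3% L-arabinose, DNA abundance read by NGS, three biological replicates, DESeq2 with apeglm shrinkage.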

Sequence	shrunken log2 fold change
RRIRHRPPRLPRPRPRPCWSPRP	-0.166
RRIRHRPPRLPRPRPRPCYTPRP	0.0618
RRIRHRPPRLPRPRPRPDDQPRP	-0.0481
RRIRHRPPRLPRPRPRPDFLPRP	-0.0554
RRIRHRPPRLPRPRPRPDFSPRP	-0.0123
RRIRHRPPRLPRPRPRPDGDPRP	0.0106
RRIRHRPPRLPRPRPRPDGGPRP	-0.137
RRIRHRPPRLPRPRPRPDGRPRP	0.172
RRIRHRPPRLPRPRPRPDGVPRP	0.0513
RRIRHRPPRLPRPRPRPDHDPRP	0.0111
RRIRHRPPRLPRPRPRPDIDPRP	-0.235
RRIRHRPPRLPRPRPRPDMKPRP	-0.0644
RRIRHRPPRLPRPRPRPDMNPRP	-0.178
RRIRHRPPRLPRPRPRPDNMPRP	3.69
RRIRHRPPRLPRPRPRPDNPPRP	-0.0868
RRIRHRPPRLPRPRPRPDPGPRP	-0.199
RRIRHRPPRLPRPRPRPDQWPRP	-0.108
RRIRHRPPRLPRPRPRPDRIPRP	-0.495
RRIRHRPPRLPRPRPRPDSEPRP	-0.0112
RRIRHRPPRLPRPRPRPDSFPRP	-0.477
RRIRHRPPRLPRPRPRPDVWPRP	0.15
RRIRHRPPRLPRPRPRPDWIPRP	-0.111
RRIRHRPPRLPRPRPRPDWMPRP	-0.222
RRIRHRPPRLPRPRPRPDWSPRP	0.00911
RRIRHRPPRLPRPRPRPDYYPRP	-0.622

Sequence	shrunken log2 fold change
RRIRHRPPRLPRPRPRPECSPRP	-0.0101
RRIRHRPPRLPRPRPRPEEIPRP	0.0207
RRIRHRPPRLPRPRPRPEETPRP	-0.00605
RRIRHRPPRLPRPRPRPEFAPRP	0.0409
RRIRHRPPRLPRPRPRPEFCPRP	-0.0591
RRIRHRPPRLPRPRPRPEFIPRP	-0.0433
RRIRHRPPRLPRPRPRPEFQPRP	-0.0862
RRIRHRPPRLPRPRPRPEGQPRP	-0.0936
RRIRHRPPRLPRPRPRPEGSPRP	-0.0192
RRIRHRPPRLPRPRPRPEHKPRP	0.000824
RRIRHRPPRLPRPRPRPEKKPRP	-0.00333
RRIRHRPPRLPRPRPRPEKQPRP	-0.0365
RRIRHRPPRLPRPRPRPELIPRP	-0.0454
RRIRHRPPRLPRPRPRPELMPRP	-0.141
RRIRHRPPRLPRPRPRPEMAPRP	0.253
RRIRHRPPRLPRPRPRPENIPRP	-0.0173
RRIRHRPPRLPRPRPRPEQDPRP	0.057
RRIRHRPPRLPRPRPRPEQIPRP	0.0219
RRIRHRPPRLPRPRPRPETVPRP	0.12
RRIRHRPPRLPRPRPRPFATPRP	0.106
RRIRHRPPRLPRPRPRPFCCPRP	-0.0718
RRIRHRPPRLPRPRPRPFDAPRP	0.00493
RRIRHRPPRLPRPRPRPFEVPRP	-0.172
RRIRHRPPRLPRPRPRPFFSPRP	-0.253
RRIRHRPPRLPRPRPRPFHIPRP	-0.0345

Sequence	shrunken log2 fold change
RRIRHRPPRLPRPRPRPFHNPRP	-0.305
RRIRHRPPRLPRPRPRPFHPPRP	-0.274
RRIRHRPPRLPRPRPRPFIAPRP	-0.272
RRIRHRPPRLPRPRPRPFKAPRP	-0.0378
RRIRHRPPRLPRPRPRPFKHPRP	-0.454
RRIRHRPPRLPRPRPRPFLHPRP	-0.449
RRIRHRPPRLPRPRPRPFLNPRP	-0.169
RRIRHRPPRLPRPRPRPFMKPRP	-0.00214
RRIRHRPPRLPRPRPRPFMLPRP	-0.726
RRIRHRPPRLPRPRPRPFNTPRP	-1.18
RRIRHRPPRLPRPRPRPFPMPRP	-0.651
RRIRHRPPRLPRPRPRPFQDPRP	0.0239
RRIRHRPPRLPRPRPRPFRCPRP	-0.556
RRIRHRPPRLPRPRPRPFRFPRP	-0.132
RRIRHRPPRLPRPRPRPFRPPRP	-0.188
RRIRHRPPRLPRPRPRPFRRPRP	0.0303
RRIRHRPPRLPRPRPRPFSVPRP	-1.26
RRIRHRPPRLPRPRPRPFTIPRP	-0.0345
RRIRHRPPRLPRPRPRPFTLPRP	-0.312
RRIRHRPPRLPRPRPRPFTMPRP	-0.349
RRIRHRPPRLPRPRPRPFVDPRP	0.268
RRIRHRPPRLPRPRPRPFWLPRP	0.137
RRIRHRPPRLPRPRPRPFYAPRP	-0.724
RRIRHRPPRLPRPRPRPFYKPRP	-0.774
RRIRHRPPRLPRPRPRPGASPRP	-0.196

Sequence	shrunken log2 fold change
RRIRHRPPRLPRPRPRPGCAPRP	0.124
RRIRHRPPRLPRPRPRPGCCPRP	0.0396
RRIRHRPPRLPRPRPRPGDKPRP	-0.0257
RRIRHRPPRLPRPRPRPGELPRP	0.0143
RRIRHRPPRLPRPRPRPGENPRP	-0.00146
RRIRHRPPRLPRPRPRPGEVPRP	0.0396
RRIRHRPPRLPRPRPRPGFEPRP	0.373
RRIRHRPPRLPRPRPRPGFLPRP	-0.0294
RRIRHRPPRLPRPRPRPGFRPRP	0.237
RRIRHRPPRLPRPRPRPGGFPRP	-0.127
RRIRHRPPRLPRPRPRPGGLPRP	0.117
RRIRHRPPRLPRPRPRPGGWPRP	1.47
RRIRHRPPRLPRPRPRPGHCPRP	-0.133
RRIRHRPPRLPRPRPRPGHLPRP	-0.0129
RRIRHRPPRLPRPRPRPGICPRP	-0.154
RRIRHRPPRLPRPRPRPGIPPRP	0.0292
RRIRHRPPRLPRPRPRPGLLPRP	-0.0335
RRIRHRPPRLPRPRPRPGNEPRP	-0.364
RRIRHRPPRLPRPRPRPGNHPRP	-0.161
RRIRHRPPRLPRPRPRPGNKPRP	-0.089
RRIRHRPPRLPRPRPRPGRKPRP	0.00144
RRIRHRPPRLPRPRPRPGSLPRP	0.134
RRIRHRPPRLPRPRPRPGSSPRP	0.0127
RRIRHRPPRLPRPRPRPGTCPRP	-0.318
RRIRHRPPRLPRPRPRPGTDPRP	-0.0998

Sequence	shrunken log2 fold change
RRIRHRPPRLPRPRPRPGTEPRP	-0.0642
RRIRHRPPRLPRPRPRPGWYPRP	-0.018
RRIRHRPPRLPRPRPRPGYFPRP	-0.0725
RRIRHRPPRLPRPRPRPGYGPRP	-0.318
RRIRHRPPRLPRPRPRPGYIPRP	-0.176
RRIRHRPPRLPRPRPRPHAEPRP	-0.0216
RRIRHRPPRLPRPRPRPHCRPRP	0.0364
RRIRHRPPRLPRPRPRPHECPRP	-0.0277
RRIRHRPPRLPRPRPRPHFFPRP	-0.0737
RRIRHRPPRLPRPRPRPHIIPRP	-0.192
RRIRHRPPRLPRPRPRPHKTPRP	0.00711
RRIRHRPPRLPRPRPRPHMWPRP	0.104
RRIRHRPPRLPRPRPRPHPLPRP	-0.0572
RRIRHRPPRLPRPRPRPHRIPRP	-0.0803
RRIRHRPPRLPRPRPRPHTDPRP	-0.212
RRIRHRPPRLPRPRPRPHTHPRP	-0.725
RRIRHRPPRLPRPRPRPHTYPRP	-0.79
RRIRHRPPRLPRPRPRPHVCPRP	0.00854
RRIRHRPPRLPRPRPRPHWHPRP	-0.25
RRIRHRPPRLPRPRPRPIAFPRP	-0.362
RRIRHRPPRLPRPRPRPICHPRP	-0.265
RRIRHRPPRLPRPRPRPIEQPRP	-0.0277
RRIRHRPPRLPRPRPRPIGNPRP	-0.199
RRIRHRPPRLPRPRPRPIIGPRP	-0.00804
RRIRHRPPRLPRPRPRPIIIPRP	-0.247

Sequence	shrunken log2 fold change
RRIRHRPPRLPRPRPRPIKWPRP	0.126
RRIRHRPPRLPRPRPRPIKYPRP	-0.194
RRIRHRPPRLPRPRPRPILAPRP	0.00463
RRIRHRPPRLPRPRPRPILIPRP	-0.0862
RRIRHRPPRLPRPRPRPILSPRP	-0.0163
RRIRHRPPRLPRPRPRPIMSPRP	-0.161
RRIRHRPPRLPRPRPRPINYPRP	-0.248
RRIRHRPPRLPRPRPRPIPAPRP	0.32
RRIRHRPPRLPRPRPRPIPYPRP	-0.3
RRIRHRPPRLPRPRPRPIQHPRP	-0.237
RRIRHRPPRLPRPRPRPIQTPRP	-0.338
RRIRHRPPRLPRPRPRPIRCPRP	-0.115
RRIRHRPPRLPRPRPRPIRDPRP	0.0386
RRIRHRPPRLPRPRPRPISQPRP	-0.0145
RRIRHRPPRLPRPRPRPISYPRP	0.121
RRIRHRPPRLPRPRPRPITHPRP	-0.23
RRIRHRPPRLPRPRPRPIVVPRP	0.0062
RRIRHRPPRLPRPRPRPIYVPRP	-0.0627
RRIRHRPPRLPRPRPRPKCPPRP	-0.0954
RRIRHRPPRLPRPRPRPKDTPRP	-0.15
RRIRHRPPRLPRPRPRPKFLPRP	0.0327
RRIRHRPPRLPRPRPRPKHIPRP	-0.413
RRIRHRPPRLPRPRPRPKIGPRP	0.0776
RRIRHRPPRLPRPRPRPKIIPRP	-1.08
RRIRHRPPRLPRPRPRPKIPPRP	-0.254
